Reference: patent US20130172533A1 (INDUSTRIAL TECHNOLOGY RESEARCH INSTITUTE, published 2013)

Target: T1, human CD34 surface antigen on KG1a cells (human, UniProt P28906 32-385)
T1 construct: whole, on cells; The target was always presented on KG1a cells; No recombinant CD34 was used; also called surface antigen CD34; CD34 antigen
T1 sequence (looked up): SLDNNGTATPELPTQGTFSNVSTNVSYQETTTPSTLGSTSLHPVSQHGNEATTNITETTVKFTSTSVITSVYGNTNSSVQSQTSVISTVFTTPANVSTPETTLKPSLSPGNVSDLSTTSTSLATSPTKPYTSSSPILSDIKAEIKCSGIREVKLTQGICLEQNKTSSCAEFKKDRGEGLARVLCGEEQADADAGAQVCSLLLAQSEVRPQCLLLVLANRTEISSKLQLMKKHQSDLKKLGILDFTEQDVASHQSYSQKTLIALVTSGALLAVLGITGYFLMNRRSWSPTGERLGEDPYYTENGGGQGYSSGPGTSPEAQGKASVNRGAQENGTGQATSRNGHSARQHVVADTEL
Assay: flow cytometry, antibody titration on CD34+ KG1a cells
Description: KG1a cells expressing the surface antigen CD34 were used for determining the antibody binding affinity. The antibody in aliquots were individually added into KG1a cells (about 1×10⁶ cells) and reacted at 4° C. for 1 hour. The cells were washed with the FACS buffer (DPBS buffer with 2% fetus bovine serum) three times and then treated with the goat anti-mouse IgG (H+L) Alexa Fluor 488 responsive to mMy10 IgG and the goat anti-human IgG (H+L) Alexa Fluor 647 responsive to hMy10 IgG at 4° C. for 1 hour. The cells were further washed with the FACS buffer and analyzed under the FACSCalibur flow cytometer.
For determining the binding affinity of hMy10 IgG and mMy10 IgG to the surface antigen CD34 of human stem cells, a KG1a cell line was used as the cell expressing the surface antigen CD34.

Molecule | Kd
anti-My10 murine monoclonal antibody (mMy10 IgG) | 6.7 nM
humanized My10 IgG (hMy10 IgG) (antibody, V domains shown, also called humanized My10 (hMy10) IgG1; humanized anti-human CD34 monoclonal antibody) VH: EVQLVESGGGLVQPGGSLRLSCAVSGFSLTSHGVHWVRQAPGKGLEWLGVIWGAGRTDYNAAFISRLSISRDISKSQVYLQMNSLRAEDTAVYYCARNRYESYFDYWGQGTLVTVSS VL: DIQMTQSPSSLSASVGDRVTITCRSSQNLVHSNGNTYLHWYQQKPGKAPKLLIYKVSNRFSGVPDRFSGSGSGTEFTLTISSLQPEDFATYYCSQSTHVPLTFGQGTKVEIKR | 6.9 nM
